Experimental data taken from the DeepSol protein solubility set.

Assay: soluble on expression in E. coli; label from the status in PepcDB or PDB records

Sequence | soluble on expression in E. coli
MRGLRKEALEELMKLLNMKDFPYRIEGIDISHLQGKYTVASLVVFEDGFPKKGDYRRYKIEQDHPDDYESIRTVVKRRYSKHPLPNLLFVDGGIGQVNAAIEALKEIGKDCPVVGLAKKEETVVFENREIHLPHDHPVLRLLVQIRDETHRFAVSYHRKRREKESLRSVLDNVPGIGPIRKKKLIEHFGSLENIRSASLEEIARVIGSTEIARRVLDILG | soluble
MRGLSRRVQAMKPDAVVAVNAKALELRRQGVDLVALTAGEPDFDTPEHVKEAARRALAQGKTKYAPPAGIPELREALAEKFRRENGLSVTPEETIVTVGGSQALFNLFQAILDPGDEVIVLSPYWVSYPEMVRFAGGVVVEVETLPEEGFVPDPERVRRAITPRTKALVVNSPNNPTGAVYPKEVLEALARLAVEHDFYLVSDEIYEHLLYEGEHFSPGRVAPEHTLTVNGAAKAFAMTGWRIGYACGPKEVIKAMASVSRQSTTSPDTIAQWATLEALTNQEASRAFVEMAREAYRRRRDLLLEGLTALGLKAVRPSGAFYVLMDTSPIAPDEVRAAERLLEAGVAVVPGTDFAAFGHVRLSYATSEENLRKALERFARVLGRA | soluble
MRGSHHHHHHGMASMTGGQQMGRDLYDDDDKMSVIKPEMKMKYFMDGSVNGHEFTVEGEGTGKPYEGKHKITLDVTKGGPLPFAFDLLSTVFSYGNRCLTKYPDDIPDYFKQCFPGGYSWERKFEFEDGGLAIAKAEISLKGNCFEHKSTIEGTFPDSSPIAQNKTLGWEPSTEKMTVRDGSMKGDDAAYLKLVGGGNHKCYFTTTYTAKKKIPNLPQSHFIGHRISSVVNGTKIGVMEDAIAHLYPFNGVPCQ | soluble
MRGSHHHHHHGSTTFNIQDGPDFQDRVVNSETPVVVDFHAQWCGPCKILGPRLEKMVAKQHGKVVMAKVDIDDHTDLAIEYEVSAVPTVLAMKNGDVVDKFVGIKDEDQLEAFLKKLIG | soluble
MRGSHHHHHHMDYASVAMAAAPTTTTTTNVSLRRQRHRKEKLLVLMGATGTGKSRLSIDLAAHFPLEVINSDKMQVYKGLDITTNKISVPDRGGVPHHLLGEVDPARGELTPADFRSLAGKAVSEITGRRKLPVLVGGSNSFIHALLVDRFDSSGPGVFEEGSHSVVSSELRYDCCFLWVDVSVKVLTDYLAKRVDDMLELGMFDELAEFYSPEDEDHDEDSATRTGLRKAIGVPEFDRYFEKFRPGDVEGEDPGRDRVRRGAFEEAVRAIKENTCHLAKRQIGKILRLKGAGWDLRRLDATESFRAAMTSDSGEKCTEIWEKQVLEPSVKIVSRFLDE | soluble
MRGSHHHHHHTDPALRAIKVYGVPGWGSTISELMLTLADIPYQFVDVSGFDHEGASRELLKTLNPLCQVPTLALENDEIMTETAAIALMVLDRRPDLAPPVGRAERQLFQRLLVWLVANVYPTFTFADYPERWAPDAPEQLKKNVIEYRKSLYIWLNSQLTAEPYAFGEQLTLVDCYLCTMRTWGPGHEWFQDNATNISAIADAVCQLPKLQEVLKRNEIIGLCGR | soluble
MRGVVFLHAFPYSPRMWEGEVALLKTRLPVLAPHYLGLSLGKAAEKVLGEMDEAGLEQAVFVGLSMGGYLVFELFRKAPERFLGTVLSSTRAGPDSEEAKRNRYALRERVLKDGVGFLPEALLPSHLGRTTQATKPEVVEKVRAIILEASPEAVAETLVALAERPDSTPLLSRMQVPALVLVGEEDTLTPPEEARRMWKALPDARMLILPETGHLANLENPKAFRTALLGFLAEFF | soluble
MRGWHHHHHHGIRMRARYPSVVDVYSVEQFRNIMSEDILTVAWFTAVWCGPCKTIERPMEKIAYEFPTVKFAKVDADNNSEIVSKCRVLQLPTFIIARSGKMLGHVIGANPGMLRQKLRDIIKDN | soluble
MRIAILGGGVAGSTLAYLLSRINYEVTIFDINQHYVKPCGDIVPNIYTPPFNWKETFGIRRFSFYIDGEKIYDVEYRHTKWLVIDKWKWINDMRKSSKVIVTHDNNAKEFDYVIDSRGPYPMDREVVYTTRAIIETEEFDDEAILEFNTRYTGFYWIFPSKENEYNIGAGFLEYKNSKELLNYYLRKRFKNFEVKDIRGAPISIGSVKNKKLRIGEARGLVFPLSGEGIRPSAISAEYAFEAIHKEKDLDGFLNEKLSIIEKRIKIQKMLLDLYRYSSLNLRKTFMRIFFKNEVLIDTYLEDKMDLNGIIESLKSVRANGGIIRKFEEQERLEHHHHHH | not soluble
MRIALIIFPIHASHGCILQTYALYRTLRKLGHDVSIIDRQWDKLSLKNQLVYAVKSLIISIKRKCIRPLTIEGTRKIIMSELQTFVDKHLSNRKIYFRTPRYEELPHYDAFIVGSDQTWRPKYVSDILYYYLCFVPAEEKVKRIAYAPSFGTEEWEYSEQQTLQCRELVSRFDAIAVREDSGAKLCGKYLGINVEHVLDPTMLLNKEDYLSETGIMPSEQNRLSYYLLDNSKSKMQIVEEICKELHLTVQRINTETENHKAGIKERVAPSIEKWIEGFVNSKFIVADSFHATVFAIIFNKHFITIANKDRGIARFESLLKMFGLENRLITDIRQVTPELVHESIDWGKVNQTMWAKQSSSLDYLKFNLGNI | not soluble
MRIFLLFLFFVLFTFGVEGYVIEEINGSTGLRIHKEIKRKVYITEDALITETEKEFMVQKIENGLPRIYRVIKSSKSYMDFSKMTPLFLVSLPFLDCKQRVCVVNRGAFRPTNEYKKIRGFKARKVVVESHALGKKTTLIQWYTKEWKELVEANRLEDKFYVNFIRAIMKEKNLSEANIPLKEIQNFLKEINEKFGGVVRTQQQMPLFNTYSEVISVKKTEIPDYIYKLPEGYTKIK | not soluble
MRIGLFTDTYFPQVSGVATSIRTLKTQLEKMGHNVFIFTTTDRDVDRYEDWQIIRIPSVPFFAFKDRRVAYRGFSKALEIAKQYKLDIIHTQTEFSLGLLGIAIAHELKIPVVHTYHTQYEDYVRYIAKGMVIRPSMVKYIVRGFMSDLDGVICPSEIVYDLLLKYKVAAEKRVIPTGIELEKFQRPEITEEDVSDLRAKLGISSDETMLLSLSRVSYEKNIQAVMAALPSVLEEEDKVRLVVAGDGPYLPHLKSQAKKLGIEDKVVFTGMIAPGETALYYKAADFFISASTSETQGLTYLEALASGTPIIAHGNTYLDNIITDKMFGILYYHDNDLAGAILEAAIVTPEKDETKWAEKLYEISAENFGKRVYEYYLDLTISKDFHNDLNGEDSTMKRLTRMVTHLPTKAITLPVNGSVRIIKGSAKQVKKIRNIKKFLDLEHHHHHH | soluble
MRIIEQDPWLRPYESVIESRLKYARKRETDLTGGRSGGLSDFANGHLYYGLHQDGDSWVIREFAPEATAVYLIGELSRWRRLPQFRFAPVDEAGSWELRLSCRLLPHGSRYRLFFEWPGGEGERIPAWCNRVEQDPETYLFYAQVWVPDTPYEMKHPHPNR | not soluble
MRILVNLILFSLIPLAFSNENSSSYLIARPLIFETQLKNINDNVNLHCTSWRFAAETNNLAPWKTIPAECADYVKDYLMGEGYVVDVERVSEEAKVYASSFESNGDGKDIWIFDIDETLLSNLPYYMEHGCGLEVFDHSKFDMWVEKGIAPAIAPSLKLYQKVIHLGYKVILLTGRRENHRVITVENLRNAGFHNWDKLILRSLDDRNKTATMYKSEKREEMVKEGYRIRGNSGDQWSDLLGSAMSERSFKLPNPMYYIP | soluble
MRKIIVGSRKSKLALTQTNWFIDQLKALGLPYEFEVKEIVTKGDVILDVTLSKVGGKGLFVKEIEHALLTKEIDMAVHSMKDMPAVLPEGLMIGCTPKRVDPRDAFISKSGASYKELAEGAILGTSSLRRSAQLLAARPDLQVKWIRGNIDTRLRKLKEEDYDAIILATAGLQRMGWDNEVITEHLDETLCVPAVGQGALAIECREDDKDLLQLLAHINDAVTEKTVAAERVFLHKLEGGCQVPIAGYATITENDAIELTALVGSMDGSVLLKETVVGTDPEKVGLEAADRLIKQGAKELILAANKGQQ | not soluble
MRKLALVPIQFYRYAISPLMASHCRFYPSCSCYAYEAIDNHGLLRGGWLSIRRLGRCHPWNPGGYDPVPAVPTSRSSSMAELEHHHHHH | not soluble
MRKLKYQRDFFPLLHLNYGSNWRCGMDRIAYFKSLLEKNPDNPMVHYSLGLEYFKVKDYENAIKHLERYLELQEDEGAAYRTLAKCYEELGEFQKAIEVLEEGIRQAMKYNHPSMAQEYQQWIEELKGMAFLEHHHHHH | not soluble
MRKLNNHDVHKRYQDRLEEDVEFTINYELPLSCLWSTIKDFSSDFEEKTEAFFILFKELLRRGHLKLQRDGQIIGHTPEEWEQIFREVWPEYEIEPNPLPGYAPFDIGMWLTVEAPAYAVWIDPEDGSEYWAG | soluble
MRKLSKRLLGTVHVATSSTPPGSPFSLVNRQFLLLPTMDKLMGEICREKQIVDRCKMSIDRKEPYDLISMKQQIEISLSKITAMKMRLFHMQNNSETHNSPCSINQQILNTQLLCHGARKVRESLRKDESPNEKVLRETEQTILVLNEKLDLLSNCCSQKESSLTPISVRRSRGGPSKTNNFPVAVSGFLKIRVTGLADLPNNTKHRSGRYASEHFAQLIKKKKSMFGRHGFRRYPNRSSAVNDYIIVIHVGGKEVATMVWNEKKTMVGGDEETIQLFKSRQLDFEIYHTDSRSLCAIGSMQLESLLDEHDAKFPFATFAHRVVNLIPEGTLHFQTTYSDPEQSMEKKLGDTCTDGVSKLAVSMRKSGSVLARGSKTFYSPRTAISLNQFVPLTPSMKSRTRRIDSLDSYRLISEIGVGAFGTVKLGTKDP | not soluble
MRLIHLSDIHAGKNLGRVSRNEDVVYALNQVVDFCKENKPDLVLVAGDVFDKANPDNEAKEIIFDFFLKLHSLNIPSVVISGNHDSYEFMKSLKKLLQVIDVYVVPKPNLEECVLDVKGLKIACLPYPSERVLTRAGEDSKLSYAVLVEKAIKYLYEKVKDAPLKVLLSHLFIAGSKYTRTEREATITDYYAVEPSAIPEGFDYVALGHVHRYQRIEKAPTHVYYTGSLFQLDFSEAGQEKFFNFVELKEGEPPHVEAIKLSLKNPLHTFEINQENYAKELEKIKDVQGYIKVHLIVKDKTKMHLVAEKVKEALGEKLIKLELLTPEEAIKKRLEEEREIQKLNLLDLYRDYFKESYGREVPQEIIKTVSQLLEQVHES | soluble
MRLNIAPAPWPGAPVVVLSAGLGGGGGYWLAQRAALEEQYQLVSYDHNGTGENAGPLPAGYSLATMAGELFSALQAAGIARFALVGHALGALIGLQLALDRPEAVSALALVNGWLSLSPHTRRCFQVRERLLHAGGAQAWVEAQPLFLYPAEWMAARLPRLEAEDALAISHFQGKENLLKRLQALKQADFSRRASAIACPTLIISAADDLLVPASCSRVLQTAIPGSQLVEMPWGGHACNVTDADTFNTILRDGLSAMLPVARETR | not soluble
MRLNLRQLQIFCAITRFGSTTSAGNALALSQSATSAALNELEGALGTRLFDRVGKRLVLNDSGQSLLPRAMKMLENAQQIEDSFLLPDTTLNARLRIGSSSTIGNYELPSIVGALRESAPLLRVDVDIGNSALIARKVARFEIVMGLIEAPCHLPELIAEPWSVDEMVIVAGINHPLARQKQVSLGELQDAEWLLREPGSGTREEVEHLLLRHLHDLQDLREIGSSEAIKRTLAQGIGISCLSRRVVADLLASGQLKALASPLPPLNRRFFMIRHRDKFISPSLERFREACRQATDQAATLRHGLSHNASPTSSTTP | not soluble
MRLPALFLAHGSPMLAIEDNAYTAFLGKLGEGIRPQAVVIFTAHWMTRQPTVSAVEGTYDMIYDFSGFPRELYEVVYLARGSVEWAERVRERLAGVAEVAVDSTRGLDHGSWVLLHRLFPNADIPVVQASVLPWWTPKQLFQLGEALRPLRDEGLMVIGSGGTVHNLMALRWEGHAEADAWAMAFDDWLLSRSAAHSEEVFDYENKAPYAKQAVPTPEHLAPYWIAYGAGDRDQAPRVLFREYQYGSLSLMAVTF | not soluble
